Reference: patent publication US11999805

Tests used:
SpyCas9 (S. pyogenes) = SpyCas9 (S. pyogenes) (UniProt Q99ZW2); test: cell-based or functional assay
50-2-13 = system: T1, 50-2-13
T1 sequence: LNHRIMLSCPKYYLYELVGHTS

50-2-16 = system: T2, 50-2-16
T2 sequence: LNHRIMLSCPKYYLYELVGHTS

50-20-14 = system: T3, 50-20-14
T3 sequence: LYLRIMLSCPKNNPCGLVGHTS

60-1-10 = system: T4, 60-1-10
T4 sequence: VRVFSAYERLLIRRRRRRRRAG

60-1-56 = system: T5, 60-1-56
T5 sequence: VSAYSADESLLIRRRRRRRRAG

63-2-27 = system: T6, 63-2-27
T6 sequence: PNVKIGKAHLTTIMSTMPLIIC

63-2-87 = system: T7, 63-2-87
T7 sequence: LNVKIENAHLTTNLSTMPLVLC

82-2-12 = system: T8, 82-2-12
T8 sequence: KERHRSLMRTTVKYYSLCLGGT

82-2-21 = system: T9, 82-2-21
T9 sequence: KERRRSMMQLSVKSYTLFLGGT

82-2-28 = system: T10, 82-2-28
T10 sequence: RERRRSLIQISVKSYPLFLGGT

90-1-18 = system: T11, 90-1-18
T11 sequence: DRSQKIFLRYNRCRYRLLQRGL

90-1-27 = system: T12, 90-1-27
T12 sequence: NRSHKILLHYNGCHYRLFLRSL

90-1-50 = system: T13, 90-1-50
T13 sequence: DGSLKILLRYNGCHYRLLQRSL

90-2-18 = system: T14, 90-2-18
T14 sequence: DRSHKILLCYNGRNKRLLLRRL

90-2-5 = system: T15, 90-2-5
T15 sequence: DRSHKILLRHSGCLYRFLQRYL

99-1-1 = system: T16, 99-1-1
T16 sequence: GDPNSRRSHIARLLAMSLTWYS

99-2-2 = system: T17, 99-2-2
T17 sequence: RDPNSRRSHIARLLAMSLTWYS

Peptide 15 = system: T18, Peptide 15
T18 sequence: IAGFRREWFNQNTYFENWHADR

Peptide 50 = system: T19, Peptide 50
T19 sequence: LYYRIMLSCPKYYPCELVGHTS

Peptide 60 = system: T20, Peptide 60
T20 sequence: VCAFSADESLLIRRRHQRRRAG

Peptide 61 = system: T21, Peptide 61
T21 sequence: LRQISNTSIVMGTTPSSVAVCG

Peptide 63 = system: T22, Peptide 63
T22 sequence: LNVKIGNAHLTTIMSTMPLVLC

Peptide 73 = system: T23, Peptide 73
T23 sequence: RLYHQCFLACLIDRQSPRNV

Peptide 80 = system: T24, Peptide 80
T24 sequence: TESIRSYFAMTIRRNH

Peptide 82 = system: T25, Peptide 82
T25 sequence: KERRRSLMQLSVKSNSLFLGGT

Peptide 90 = system: T26, Peptide 90
T26 sequence: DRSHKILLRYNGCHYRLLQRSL

Peptide 91 = system: T27, Peptide 91
T27 sequence: VYDFYRMLSHFFLKGPSR

Peptide 99 = system: T28, Peptide 99
T28 sequence: RRSHIAWLLAMSLTWYS

AcrIIA4
reduced editing (compared to plasmid control), A549 GFP reporter cells (SpyCas9 (S. pyogenes)): 74%

SpyCas9
decrease in cleavage-based fluorescence at 200 µM peptide, FRET assay (50-2-13): All of the MPs drastically reduced SpyCas9 substrate cleavage at 200 µM with a greater than 88% decrease in fluorescence | substrate cleavage, denaturing 15% urea PAGE, peptide 200 µM (50-2-13): 17 hits were identified that reduced fluorescence and substrate cleavage in the Cas9 cleavage reaction (visualized by Gel) at 200 µM | decrease in cleavage-based fluorescence at 200 µM peptide, FRET assay (50-2-16): All of the MPs drastically reduced SpyCas9 substrate cleavage at 200 µM with a greater than 88% decrease in fluorescence | substrate cleavage, denaturing 15% urea PAGE, peptide 200 µM (50-2-16): 17 hits were identified that reduced fluorescence and substrate cleavage in the Cas9 cleavage reaction (visualized by Gel) at 200 µM | decrease in cleavage-based fluorescence at 200 µM peptide, FRET assay (50-20-14): All of the MPs drastically reduced SpyCas9 substrate cleavage at 200 µM with a greater than 88% decrease in fluorescence | substrate cleavage, denaturing 15% urea PAGE, peptide 200 µM (50-20-14): 17 hits were identified that reduced fluorescence and substrate cleavage in the Cas9 cleavage reaction (visualized by Gel) at 200 µM | decrease in cleavage-based fluorescence at 200 µM peptide, FRET assay (60-1-10): All of the MPs drastically reduced SpyCas9 substrate cleavage at 200 µM with a greater than 88% decrease in fluorescence | substrate cleavage, denaturing 15% urea PAGE, peptide 200 µM (60-1-10): 17 hits were identified that reduced fluorescence and substrate cleavage in the Cas9 cleavage reaction (visualized by Gel) at 200 µM | decrease in cleavage-based fluorescence at 200 µM peptide, FRET assay (60-1-56): All of the MPs drastically reduced SpyCas9 substrate cleavage at 200 µM with a greater than 88% decrease in fluorescence | substrate cleavage, denaturing 15% urea PAGE, peptide 200 µM (60-1-56): 17 hits were identified that reduced fluorescence and substrate cleavage in the Cas9 cleavage reaction (visualized by Gel) at 200 µM | decrease in cleavage-based fluorescence at 200 µM peptide, FRET assay (63-2-27): All of the MPs drastically reduced SpyCas9 substrate cleavage at 200 µM with a greater than 88% decrease in fluorescence | substrate cleavage, denaturing 15% urea PAGE, peptide 200 µM (63-2-27): 17 hits were identified that reduced fluorescence and substrate cleavage in the Cas9 cleavage reaction (visualized by Gel) at 200 µM | decrease in cleavage-based fluorescence at 200 µM peptide, FRET assay (63-2-87): All of the MPs drastically reduced SpyCas9 substrate cleavage at 200 µM with a greater than 88% decrease in fluorescence | substrate cleavage, denaturing 15% urea PAGE, peptide 200 µM (63-2-87): 17 hits were identified that reduced fluorescence and substrate cleavage in the Cas9 cleavage reaction (visualized by Gel) at 200 µM | decrease in cleavage-based fluorescence at 200 µM peptide, FRET assay (82-2-12): All of the MPs drastically reduced SpyCas9 substrate cleavage at 200 µM with a greater than 88% decrease in fluorescence | substrate cleavage, denaturing 15% urea PAGE, peptide 200 µM (82-2-12): 17 hits were identified that reduced fluorescence and substrate cleavage in the Cas9 cleavage reaction (visualized by Gel) at 200 µM | decrease in cleavage-based fluorescence at 200 µM peptide, FRET assay (82-2-21): All of the MPs drastically reduced SpyCas9 substrate cleavage at 200 µM with a greater than 88% decrease in fluorescence | substrate cleavage, denaturing 15% urea PAGE, peptide 200 µM (82-2-21): 17 hits were identified that reduced fluorescence and substrate cleavage in the Cas9 cleavage reaction (visualized by Gel) at 200 µM | decrease in cleavage-based fluorescence at 200 µM peptide, FRET assay (82-2-28): All of the MPs drastically reduced SpyCas9 substrate cleavage at 200 µM with a greater than 88% decrease in fluorescence | substrate cleavage, denaturing 15% urea PAGE, peptide 200 µM (82-2-28): 17 hits were identified that reduced fluorescence and substrate cleavage in the Cas9 cleavage reaction (visualized by Gel) at 200 µM | decrease in cleavage-based fluorescence at 200 µM peptide, FRET assay (90-1-18): All of the MPs drastically reduced SpyCas9 substrate cleavage at 200 µM with a greater than 88% decrease in fluorescence | substrate cleavage, denaturing 15% urea PAGE, peptide 200 µM (90-1-18): 17 hits were identified that reduced fluorescence and substrate cleavage in the Cas9 cleavage reaction (visualized by Gel) at 200 µM | decrease in cleavage-based fluorescence at 200 µM peptide, FRET assay (90-1-27): All of the MPs drastically reduced SpyCas9 substrate cleavage at 200 µM with a greater than 88% decrease in fluorescence | substrate cleavage, denaturing 15% urea PAGE, peptide 200 µM (90-1-27): 17 hits were identified that reduced fluorescence and substrate cleavage in the Cas9 cleavage reaction (visualized by Gel) at 200 µM | decrease in cleavage-based fluorescence at 200 µM peptide, FRET assay (90-1-50): All of the MPs drastically reduced SpyCas9 substrate cleavage at 200 µM with a greater than 88% decrease in fluorescence | substrate cleavage, denaturing 15% urea PAGE, peptide 200 µM (90-1-50): 17 hits were identified that reduced fluorescence and substrate cleavage in the Cas9 cleavage reaction (visualized by Gel) at 200 µM | decrease in cleavage-based fluorescence at 200 µM peptide, FRET assay (90-2-18): All of the MPs drastically reduced SpyCas9 substrate cleavage at 200 µM with a greater than 88% decrease in fluorescence | substrate cleavage, denaturing 15% urea PAGE, peptide 200 µM (90-2-18): 17 hits were identified that reduced fluorescence and substrate cleavage in the Cas9 cleavage reaction (visualized by Gel) at 200 µM | decrease in cleavage-based fluorescence at 200 µM peptide, FRET assay (90-2-5): All of the MPs drastically reduced SpyCas9 substrate cleavage at 200 µM with a greater than 88% decrease in fluorescence | substrate cleavage, denaturing 15% urea PAGE, peptide 200 µM (90-2-5): 17 hits were identified that reduced fluorescence and substrate cleavage in the Cas9 cleavage reaction (visualized by Gel) at 200 µM | decrease in cleavage-based fluorescence at 200 µM peptide, FRET assay (99-1-1): All of the MPs drastically reduced SpyCas9 substrate cleavage at 200 µM with a greater than 88% decrease in fluorescence | substrate cleavage, denaturing 15% urea PAGE, peptide 200 µM (99-1-1): 17 hits were identified that reduced fluorescence and substrate cleavage in the Cas9 cleavage reaction (visualized by Gel) at 200 µM | decrease in cleavage-based fluorescence at 200 µM peptide, FRET assay (99-2-2): All of the MPs drastically reduced SpyCas9 substrate cleavage at 200 µM with a greater than 88% decrease in fluorescence | substrate cleavage, denaturing 15% urea PAGE, peptide 200 µM (99-2-2): 17 hits were identified that reduced fluorescence and substrate cleavage in the Cas9 cleavage reaction (visualized by Gel) at 200 µM | % activity, FRET cleavage assay (Peptide 15): Peptide15 significantly reduced activity of CjeCas9 and SpyCas9 and SauCas9 at 200 µM (P<0.01) | substrate cleavage, FRET assay, peptide 200 to 12.5 µM (Peptide 15): the peptides inhibited substrate cleavage in a peptide concentration-dependent manner | substrate cleavage, FRET assay, peptide 200 to 12.5 µM (Peptide 50): the peptides inhibited substrate cleavage in a peptide concentration-dependent manner | % activity, FRET cleavage assay (Peptide 60): Peptide 60, 90, and 91 significantly reduced activity of SauCas9 and SpyCas9 at 200 µM (P<0.005) | substrate cleavage, FRET assay, peptide 200 to 12.5 µM (Peptide 60): the peptides inhibited substrate cleavage in a peptide concentration-dependent manner | substrate cleavage, FRET assay, peptide 200 to 12.5 µM (Peptide 61): the peptides inhibited substrate cleavage in a peptide concentration-dependent manner | substrate cleavage, FRET assay, peptide 200 to 12.5 µM (Peptide 63): the peptides inhibited substrate cleavage in a peptide concentration-dependent manner | substrate cleavage, FRET assay, peptide 200 to 12.5 µM (Peptide 73): the peptides inhibited substrate cleavage in a peptide concentration-dependent manner | substrate cleavage, FRET assay, peptide 200 to 12.5 µM (Peptide 80): the peptides inhibited substrate cleavage in a peptide concentration-dependent manner | substrate cleavage, FRET assay, peptide 200 to 12.5 µM (Peptide 82): the peptides inhibited substrate cleavage in a peptide concentration-dependent manner | % activity, FRET cleavage assay (Peptide 90): Peptide 60, 90, and 91 significantly reduced activity of SauCas9 and SpyCas9 at 200 µM (P<0.005) | substrate cleavage, FRET assay, peptide 200 to 12.5 µM (Peptide 90): the peptides inhibited substrate cleavage in a peptide concentration-dependent manner | % activity, FRET cleavage assay (Peptide 91): Peptide 60, 90, and 91 significantly reduced activity of SauCas9 and SpyCas9 at 200 µM (P<0.005) | substrate cleavage, FRET assay, peptide 200 to 12.5 µM (Peptide 91): the peptides inhibited substrate cleavage in a peptide concentration-dependent manner | % activity, FRET cleavage assay (Peptide 99): Peptide 99 significantly reduced activity of all three Cas9 variants at 100 and 200 µM (P<0.005) | substrate cleavage, FRET assay, peptide 200 to 12.5 µM (Peptide 99): the peptides inhibited substrate cleavage in a peptide concentration-dependent manner
